Experimental data from IntAct's records for PubMed 25009770.

Legend:
[1] = target: T1, psmd9_human PSMD9 (UniProt O00233)
T1 sequence: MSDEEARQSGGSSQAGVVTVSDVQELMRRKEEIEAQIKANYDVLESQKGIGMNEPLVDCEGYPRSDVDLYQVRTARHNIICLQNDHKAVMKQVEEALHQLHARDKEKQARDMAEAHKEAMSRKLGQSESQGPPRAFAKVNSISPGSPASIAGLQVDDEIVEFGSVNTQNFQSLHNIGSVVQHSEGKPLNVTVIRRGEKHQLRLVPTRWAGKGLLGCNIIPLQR

[2] = target: T1, psmd9_human PSMD9; remark: listed apart in the source

For “Small ribosomal subunit protein uS11 (Homo sapiens) (from UniProt P62263) L151G”, the “effect of a mutation on the interaction” value [1] was “disrupting interaction strength” and the “effect of a mutation on the interaction” value [2] was “decreasing interaction strength”.
